Results: patent US20240270821A1, “GIP/GLP1/GCG TRI-RECEPTOR AGONISTS AND USES THEREOF” (priority 2023, published 2024)
Numbering of substitutions follows the chain as printed.

T1: human GIP receptor (human) (UniProt P48546)
T1 sequence (looked up): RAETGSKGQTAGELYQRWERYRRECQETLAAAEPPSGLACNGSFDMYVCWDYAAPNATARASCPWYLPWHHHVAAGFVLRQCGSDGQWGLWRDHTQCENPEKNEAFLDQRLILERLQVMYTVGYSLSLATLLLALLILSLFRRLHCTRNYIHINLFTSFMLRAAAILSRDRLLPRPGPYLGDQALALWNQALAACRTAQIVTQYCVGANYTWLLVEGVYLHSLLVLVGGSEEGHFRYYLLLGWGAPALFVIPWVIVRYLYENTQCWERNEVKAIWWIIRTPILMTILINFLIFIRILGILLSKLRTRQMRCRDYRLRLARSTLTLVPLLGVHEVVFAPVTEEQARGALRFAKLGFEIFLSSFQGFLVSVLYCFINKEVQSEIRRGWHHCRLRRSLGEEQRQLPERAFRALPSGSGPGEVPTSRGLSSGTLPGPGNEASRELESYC

B1: Example 1155 (peptide)
chain: YXQGTXTSDXXIXLDXKAQXEFIEXLVEGGPSSGEPPPGGE
modifications: not fully specified; Lys acylated AEEA-γGlu-C18 diacid; non-natural residues; C-amide; synthetic construct; SITE 2: note = 2-Aminoisobutyric Acid; SITE 6: note = alpha-methyl-2-fluoro-L-phenylalanine; SITE 10: note = 3-(4-Pyridyl)-L-alanine; SITE 11: note = alpha-methyl-L-serine; SITE 13: note = alpha-methyl-leucine; SITE 16: note = L-ornithine; SITE 17: note = Lysine is chemically mo
B2: Example 1156 (peptide)
chain: B1 chain with E35A, G39E, G40S
modifications: not fully specified; acylated lysine AEEA-γGlu-C18 diacid; non-natural residues; C-terminal amide; synthetic construct; SITE 2: note = 2-Aminoisobutyric Acid; SITE 6: note = alpha-methyl-2-fluoro-L-phenylalanine; SITE 10: note = 3-(4-Pyridyl)-L-alanine; SITE 11: note = alpha-methyl-L-serine; SITE 13: note = alpha-methyl-leucine; SITE 16: note = L-ornithine; SITE 17: note = Lysine is chemically mo
B3: Example 1157 (peptide)
chain: B1 chain with G39E, G40S
modifications: not fully specified; non-natural residues; lipidated Lys; C-terminal amide; synthetic construct; SITE 2: note = 2-Aminoisobutyric Acid; SITE 6: note = alpha-methyl-2-fluoro-L-phenylalanine; SITE 10: note = 3-(4-Pyridyl)-L-alanine; SITE 11: note = alpha-methyl-L-serine; SITE 13: note = alpha-methyl-leucine; SITE 16: note = L-ornithine; SITE 17: note = Lysine is chemically mo
B4: Example 1158 (peptide)
chain: B1 chain with E35A, G39E
modifications: not fully specified; non-natural residues, lysine acylation, C-terminal amide; synthetic construct; SITE 2: note = 2-Aminoisobutyric Acid; SITE 6: note = alpha-methyl-2-fluoro-L-phenylalanine; SITE 10: note = 3-(4-Pyridyl)-L-alanine; SITE 11: note = alpha-methyl-L-serine; SITE 13: note = alpha-methyl-leucine; SITE 16: note = L-ornithine; SITE 17: note = Lysine is chemically mo
B5: Example 1159 (peptide)
chain: B1 chain with G39E
modifications: Aib, αMeF(2F), 4Pal, Me4Pal, Orn; lipidated Lys; C-terminal amide; synthetic construct; SITE 2: note = 2-Aminoisobutyric Acid; SITE 6: note = alpha-methyl-2-fluoro-L-phenylalanine; SITE 10: note = 3-(4-Pyridyl)-L-alanine; SITE 11: note = alpha-methyl-L-serine; SITE 13: note = alpha-methyl-leucine; SITE 16: note = L-ornithine; SITE 17: note = Lysine is chemically mo
B6: Example 1160 (peptide)
chain: B1 chain with E35A, G39S
modifications: C-terminal amide; lysine acylated with (γ-Glu)2-C18 diacid; synthetic construct; SITE 2: note = 2-Aminoisobutyric Acid; SITE 6: note = alpha-methyl-2-fluoro-L-phenylalanine; SITE 10: note = 3-(4-Pyridyl)-L-alanine; SITE 11: note = alpha-methyl-L-serine; SITE 13: note = alpha-methyl-leucine; SITE 16: note = L-ornithine; SITE 17: note = Lysine is chemically mo
B7: Example 1161 (peptide)
chain: B1 chain with G39S
modifications: Aib, αMeF(2F), 4Pal, αMeS, αMeL, Orn, Me4Pal, αMeY; lipidated Lys; amide; synthetic construct; SITE 2: note = 2-Aminoisobutyric Acid; SITE 6: note = alpha-methyl-2-fluoro-L-phenylalanine; SITE 10: note = 3-(4-Pyridyl)-L-alanine; SITE 11: note = alpha-methyl-L-serine; SITE 13: note = alpha-methyl-leucine; SITE 16: note = L-ornithine; SITE 17: note = Lysine is chemically mo
B8: Example 1162 (peptide)
chain: YXQGTXTSDXXIXLDXKAQXEFIEXLVEGGPSSGAPPPSGSE
modifications: non-natural residues; Lys acylated C18 diacid via γGlu2; C-term amide; synthetic construct; SITE 2: note = 2-Aminoisobutyric Acid; SITE 6: note = alpha-methyl-2-fluoro-L-phenylalanine; SITE 10: note = 3-(4-Pyridyl)-L-alanine; SITE 11: note = alpha-methyl-L-serine; SITE 13: note = alpha-methyl-leucine; SITE 16: note = L-ornithine; SITE 17: note = Lysine is chemically mo
B9: Example 1163 (peptide)
chain: B8 chain with A35E
modifications: non-natural residues; lipidated Lys; C-terminal amide; synthetic construct; SITE 2: note = 2-Aminoisobutyric Acid; SITE 6: note = alpha-methyl-2-fluoro-L-phenylalanine; SITE 10: note = 3-(4-Pyridyl)-L-alanine; SITE 11: note = alpha-methyl-L-serine; SITE 13: note = alpha-methyl-leucine; SITE 16: note = L-ornithine; SITE 17: note = Lysine is chemically mo
B10: Example 1164 (peptide)
chain: B1 chain with V27I, E35A, G39S
modifications: non-natural residues; acylated Lys C18 diacid; C-term amide; synthetic construct; SITE 2: note = 2-Aminoisobutyric Acid; SITE 6: note = alpha-methyl-L-phenylalanine; SITE 10: note = 3-(4-Pyridyl)-L-alanine; SITE 11: note = alpha-methyl-L-serine; SITE 13: note = alpha-methyl-leucine; SITE 16: note = L-ornithine; SITE 17: note = Lysine is chemically modified th
B11: Example 1165 (peptide)
chain: B1 chain with V27I, G39S
modifications: non-natural residues (Aib, αMeF, 4Pal, Orn, Me4Pal); lipidated Lys; C-amide; synthetic construct; SITE 2: note = 2-Aminoisobutyric Acid; SITE 6: note = alpha-methyl-L-phenylalanine; SITE 10: note = 3-(4-Pyridyl)-L-alanine; SITE 11: note = alpha-methyl-L-serine; SITE 13: note = alpha-methyl-leucine; SITE 16: note = L-ornithine; SITE 17: note = Lysine is chemically modified th

The binders below were run against hGLP-1R (Homo sapiens, UniProt P43220) (assay: cell-based or functional assay).
Sequence of hGLP-1R (P43220 24-463): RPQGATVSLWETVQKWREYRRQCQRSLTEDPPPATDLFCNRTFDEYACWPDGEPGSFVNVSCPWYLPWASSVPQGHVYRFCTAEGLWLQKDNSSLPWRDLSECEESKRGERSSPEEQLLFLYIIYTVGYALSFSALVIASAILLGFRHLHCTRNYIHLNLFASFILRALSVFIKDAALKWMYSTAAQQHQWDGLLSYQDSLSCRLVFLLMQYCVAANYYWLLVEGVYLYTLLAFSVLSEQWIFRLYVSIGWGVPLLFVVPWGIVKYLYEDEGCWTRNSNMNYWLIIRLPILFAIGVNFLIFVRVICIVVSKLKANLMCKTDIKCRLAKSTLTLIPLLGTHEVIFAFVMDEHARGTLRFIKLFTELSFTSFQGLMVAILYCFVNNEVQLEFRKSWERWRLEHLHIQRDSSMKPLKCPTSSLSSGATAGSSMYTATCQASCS

Row | Binder | Relative cAMP EC50 [nM] | cAMP Rel EC50 (in the presence of 1% HSA) [nM]
1 | B1 | 0.434 | 44.4
2 | B2 | 0.444 | 47.1
3 | B3 | 0.408 | 57.5
4 | B4 | 0.419 | 46.8
5 | B5 | 0.45 | 64.1
6 | B6 | 0.365 | 31.2
7 | B7 | 0.39 | 35.5
8 | B8 | 0.372 | 34.5
9 | B9 | 0.449 | 35.4
10 | B10 | 0.495 | 63.5
11 | B11 | 0.632 | 87.7

The binders below were run against T1, human GIP receptor (human) (assay: cell-based or functional assay).

Row | Binder | Relative cAMP EC50 [nM] | cAMP Rel EC50 (in the presence of 1% HSA) [nM]
12 | B1 | 0.00917 | 0.888
13 | B2 | 0.0127 | 1.33
14 | B3 | 0.0124 | 1.28
15 | B4 | 0.0126 | 1.42
16 | B5 | 0.0118 | 1.29
17 | B6 | 0.00773 | 0.598
18 | B7 | 0.00973 | 0.733
19 | B8 | 0.00818 | 0.656
20 | B9 | 0.00951 | 0.721
21 | B10 | 0.0104 | 1.17
22 | B11 | 0.0121 | 1.36

These binders were tested against human glucagon receptor (human) (UniProt P47871) (assay: cell-based or functional assay).
Sequence of human glucagon receptor (human) (P47871 26-477): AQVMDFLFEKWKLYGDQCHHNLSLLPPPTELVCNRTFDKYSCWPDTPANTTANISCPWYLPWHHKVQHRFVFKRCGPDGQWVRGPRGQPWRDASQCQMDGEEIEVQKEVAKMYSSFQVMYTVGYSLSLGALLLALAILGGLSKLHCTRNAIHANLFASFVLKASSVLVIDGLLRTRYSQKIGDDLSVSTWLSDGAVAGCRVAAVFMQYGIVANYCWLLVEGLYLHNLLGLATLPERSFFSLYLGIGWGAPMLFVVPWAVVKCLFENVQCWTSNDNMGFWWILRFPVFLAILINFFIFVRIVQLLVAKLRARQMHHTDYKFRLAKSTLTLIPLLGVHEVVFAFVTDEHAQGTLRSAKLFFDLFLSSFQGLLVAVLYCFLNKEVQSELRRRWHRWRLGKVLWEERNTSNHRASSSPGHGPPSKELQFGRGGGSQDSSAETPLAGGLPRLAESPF

Row | Binder | Relative cAMP EC50 [nM] | cAMP Rel EC50 (in the presence of 1% HSA) [nM]
23 | B1 | 1.83 | 288
24 | B2 | 2.94 | 337
25 | B3 | 2.04 | 384
26 | B4 | 2.19 | 301
27 | B5 | 1.86 | 238
28 | B6 | 2.41 | 183
29 | B7 | 2.19 | 217
30 | B8 | 2.55 | 199
31 | B9 | 1.75 | 163
32 | B10 | 2.83 | 359
33 | B11 | 2.68 | 358
